T1: Human IL2Rγ extracellular domain expressed with a C-terminal mouse IgG2a Fc tag (human)
T1 construct: whole entry is the Fc-fused construct; also called hIL-2Rg-mFc
T1 chain: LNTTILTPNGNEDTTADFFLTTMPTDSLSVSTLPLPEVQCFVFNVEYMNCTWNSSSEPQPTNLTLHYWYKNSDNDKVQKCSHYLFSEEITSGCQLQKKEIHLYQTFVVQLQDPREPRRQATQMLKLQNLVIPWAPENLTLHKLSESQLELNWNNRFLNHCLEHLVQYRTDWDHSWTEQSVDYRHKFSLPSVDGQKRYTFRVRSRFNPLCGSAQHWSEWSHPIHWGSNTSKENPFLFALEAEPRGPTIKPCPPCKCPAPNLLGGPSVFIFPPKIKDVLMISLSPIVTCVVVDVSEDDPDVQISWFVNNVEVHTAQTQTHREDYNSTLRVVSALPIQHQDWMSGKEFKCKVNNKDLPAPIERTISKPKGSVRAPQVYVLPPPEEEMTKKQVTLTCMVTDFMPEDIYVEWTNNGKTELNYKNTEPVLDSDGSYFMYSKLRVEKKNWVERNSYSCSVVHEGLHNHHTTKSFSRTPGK

T2: Mouse IL2Rγ extracellular domain expressed with a C-terminal myc-myc-hexahistidine tag (mouse)
T2 construct: whole entry is the tagged construct; also called mIL-2Rg-MMH
T2 chain: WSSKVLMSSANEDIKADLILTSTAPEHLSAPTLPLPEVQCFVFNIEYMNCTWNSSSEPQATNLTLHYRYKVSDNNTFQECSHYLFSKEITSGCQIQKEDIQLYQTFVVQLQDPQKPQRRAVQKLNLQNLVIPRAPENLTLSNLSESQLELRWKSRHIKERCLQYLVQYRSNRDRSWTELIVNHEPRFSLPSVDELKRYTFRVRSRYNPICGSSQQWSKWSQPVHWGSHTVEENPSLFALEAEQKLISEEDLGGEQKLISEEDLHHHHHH

T3: Macaca fascicularis IL2Rγ extracellular domain expressed with a C-terminal myc-myc-hexahistidine tag (Macaca fascicularis)
T3 construct: whole entry is the tagged construct; also called mfIL-2Rg-MMH
T3 chain: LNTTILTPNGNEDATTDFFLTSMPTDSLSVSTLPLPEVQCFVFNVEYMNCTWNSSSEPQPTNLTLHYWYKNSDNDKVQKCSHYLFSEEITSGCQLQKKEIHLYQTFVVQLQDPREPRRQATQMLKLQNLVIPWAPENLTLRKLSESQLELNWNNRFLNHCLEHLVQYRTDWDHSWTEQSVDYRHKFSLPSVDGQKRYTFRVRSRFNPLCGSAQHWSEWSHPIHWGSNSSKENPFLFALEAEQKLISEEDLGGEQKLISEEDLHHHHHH

T4: Rat IL2Rγ extracellular domain expressed with a C-terminal myc-myc-hexahistidine tag (rat)
T4 construct: whole entry is the tagged construct; also called rIL-2Rg-MMH; rat IL-2Rg-MMH
T4 chain: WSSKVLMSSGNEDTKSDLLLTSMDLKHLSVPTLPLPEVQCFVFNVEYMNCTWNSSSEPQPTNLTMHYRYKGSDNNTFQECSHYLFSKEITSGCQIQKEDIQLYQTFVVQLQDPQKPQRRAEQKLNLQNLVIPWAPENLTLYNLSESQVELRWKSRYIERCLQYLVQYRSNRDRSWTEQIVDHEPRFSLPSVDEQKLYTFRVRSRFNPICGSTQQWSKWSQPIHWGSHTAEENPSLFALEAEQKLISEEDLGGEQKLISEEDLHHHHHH

B1: H4H12886P (antibody, human IgG4 S228P, kappa, V domains shown)
VH: EVQLVESGGGLVKPGGSLRLSCAASGFTFSTAWMSWVRQSPGRGLEWVGRMKSKTDGGTTFYAAPVKGRFTISRDDSKNTLYLQMNSLKTEDTAVYYCTTGLVPAFYKYYGVDVWGQGTTVTVSS
VL: DIQMTQSPSSLSASVGDRITITCQASQDITNYLNWYQQKPGKAPNLLIYDASNLVTGVPSRFSGSGSGTDFTFTILSLQPEDIATYYCQQYDSLLTFGPGTKVDIKR
notes: fully human anti-IL2Rgamma mAb, human IgG4 Fc
B2: H4H13545P2 (antibody, human IgG4 S228P, kappa, V domains shown)
VH: QVQLQQSGPGLVKPSQTLSLTCDISGDSVSSNIATWNWIRQSPSRGLEWLGRTYYRSKWYKDYAVSVKSRITINPDTSKNQFSLQVNSVTPEDTAVYYCARMTGPRYYFEYWGQGTLVTVSS
VL: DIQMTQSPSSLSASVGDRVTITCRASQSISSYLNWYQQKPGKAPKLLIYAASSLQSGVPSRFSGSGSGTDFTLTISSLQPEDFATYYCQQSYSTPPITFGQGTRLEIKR
notes: as for B1
B3: H4H13538P (antibody, human IgG4 S228P, kappa, V domains shown)
VH: EVQLVESGGGLVQPGGSLGLSCAASGFTFSNYAMSWVRQAPGKGLEWVSAVSGGGGGTYYADSVKGRFTISRDNSKNTVLLQMNSLRAEDTAVYYCARGRTGGLDYWGPGTLVTVSS
VL: DVVMTQSPLSLPVIFGQPASISCRSSQSLVDSDGNTYLNWLQQRPGQSPRRLIYEVSNRDSGVPDRFSGSGSGTDFTLTISRVEAEDVGIYYCMQGTRWPPTFGGGTKVEIKR
notes: as for B1
B4: H4H13541P (antibody, human IgG4 S228P, kappa, V domains shown)
VH: EVQLVESGGGVVRPGGSLRLSCAASGFIFDDYDMSWVRQPPGRGLEWVSGIDWFGGTRGYADSMKGRFTISRDNAKNSLYLQMNSLRVEDTAFYYCARGGAIVGAVTPFDYWGQGTLVTVSS
VL: DIQMTQSPSSLSASVGNRVTLSCRASQSINTYLSWYQQRPGKAPKLLIYAASSLQSGVPSRFSGSGAGTDFTLTISSLQPEDFATYYCQQSYSAPLTFGGGTKVEIKR
notes: as for B1
B5: H4H13544P2 (antibody, human IgG4 S228P, kappa, V domains shown)
VH: QLQLQESGPGLVKPSETLSLTCTVSGGSISIKNYYWGWIRQPPGKGLEWIGSIYYSGTTYYNPSLKSRVTISVDTSKNQFSLKLSSVTAADTAVYHCARHGYSYGHGWFDPWGQGTLVTVSS
VL: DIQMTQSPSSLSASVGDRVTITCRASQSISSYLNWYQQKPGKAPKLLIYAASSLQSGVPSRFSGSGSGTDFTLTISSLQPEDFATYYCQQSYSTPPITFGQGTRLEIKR
notes: as for B1
B6: H4H12924P2 (antibody, human IgG4 S228P, kappa, V domains shown)
VH: EVQLVESGGGLVQPGRSLRLSCAASGFTLEDYAMHWVRQAPGKGLEWVSGISWNRGSTGYADSVKGRFTISRDNAKNSLYLQMTSLRAEDTALYYCAKGFYSMDVWGQGTTVTVSS
VL: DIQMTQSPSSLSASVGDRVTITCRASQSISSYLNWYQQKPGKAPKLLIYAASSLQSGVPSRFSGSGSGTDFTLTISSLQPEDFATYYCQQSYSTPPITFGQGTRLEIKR
notes: as for B1
B7: H4H12913P2 (antibody, human IgG4 S228P, kappa, V domains shown)
VH: EVQLVESGGGVVRPGGSLRLSCAASGFTFDDYGMSWVRQAPGKGLEWISSINRNGGSADYADSVKGRFTISRDNAKNSLFLQMSSLRAEDTALYHCASGEFRFDYWGQGTLVTVSS
VL: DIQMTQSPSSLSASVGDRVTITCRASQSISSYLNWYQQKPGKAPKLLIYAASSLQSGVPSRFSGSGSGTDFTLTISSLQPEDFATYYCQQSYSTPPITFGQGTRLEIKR
notes: as for B1

Target: T1, Human IL2Rγ extracellular domain …
Experiment: SPR Biacore 4000, anti-hFc-captured mAb, 37 C
Protocol: (§1) Equilibrium dissociation constants (KD values) for IL-2Rγ binding to purified anti-IL2Rγ monoclonal antibodies were determined using a Biacore 4000 instrument equipped with a real-time surface plasmon resonance biosensor. All binding studies were performed in 10 mM HEPES, 150 mM NaCl, 3 mM EDTA, and 0.05% v/v Surfactant Tween-20, pH 7.4 (HBS-ET) running buffer at 25° C. and 37° C. The Biacore sensor surface was first derivatized by amine coupling with a monoclonal mouse anti-human Fc antibody (GE, # BR-1008-39) to capture anti-IL2Rγ monoclonal antibodies.
(§2) The dissociation of monoclonal antibody bound IL2Rγ reagents were monitored for 8-10 minutes in HBS-ET running buffer. Kinetic association (kₐ) and dissociation (kd) rate constants were determined by fitting the real-time sensorgrams to a 1:1 binding model using Scrubber 2.0c curve fitting software. Binding dissociation equilibrium constants (KD) and dissociative half-lives (t_{1/2}) were calculated from the kinetic rate constants as: […]

| 50 nM Ag Bound [RU] | Kd [nM] | koff [s⁻¹] | kon [M⁻¹ s⁻¹] | t1/2 [min] | Binder |
| --- | --- | --- | --- | --- | --- |
| 19 | 12.8 | 9.09e-05 | 7080 | 127 | B1 |
| 59 | 30 | 0.00737 | 246000 | 1.6 | B2 |
| 70 | 1.29 | 0.000187 | 144000 | 62 | B3 |
| 42 | 2.18 | 0.000122 | 56000 | 94 | B4 |
| 88 | 6.33 | 0.000801 | 126000 | 14 | B5 |
| 13 | 12.2 | 0.000183 | 15000 | 63 | B6 |
| 9 | 2.53 | 0.000185 | 73200 | 62 | B7 |

Target: T2, Mouse IL2Rγ extracellular domain …
Experiment: SPR Biacore 4000, anti-hFc-captured mAb, 37 C
Protocol: as §1, §2

| 100 nM Ag Bound [RU] | Binder |
| --- | --- |
| -2 | B1 |
| 2 | B2 |
| 5 | B3 |
| 4 | B4 |
| 4 | B5 |
| -1 | B6 |
| 0 | B7 |

Target: T3, Macaca fascicularis IL2Rγ extracellular …
Experiment: SPR Biacore 4000, anti-hFc-captured mAb, 37 C
Protocol: as §1, §2

| 100 nM Ag Bound [RU] | Kd [nM] | koff [s⁻¹] | kon [M⁻¹ s⁻¹] | t1/2 [min] | Binder |
| --- | --- | --- | --- | --- | --- |
| 47 | 17.7 | 0.000846 | 47800 | 14 | B1 |
| 21 | 88.6 | 0.0129 | 146000 | 0.9 | B2 |
| 115 | 5.5 | 0.000932 | 169000 | 12 | B3 |
| 111 | 7.1 | 0.000755 | 106000 | 15 | B4 |
| 60 | 52.1 | 0.00612 | 118000 | 1.9 | B5 |
| 24 | 20.7 | 0.0137 | 662000 | 0.8 | B6 |
| 20 | 37.3 | 0.00296 | 79300 | 4 | B7 |

Target: T4, Rat IL2Rγ extracellular domain …
Experiment: SPR Biacore 4000, anti-hFc-captured mAb, 37 C
Protocol: as §1, §2

| 100 nM Ag Bound [RU] | Binder |
| --- | --- |
| 4 | B1 |
| 3 | B2 |
| 5 | B3 |
| 5 | B4 |
| 4 | B5 |
| 3 | B6 |
| 3 | B7 |

Target: T1, Human IL2Rγ extracellular domain …
Experiment: SPR Biacore 4000, anti-hFc-captured mAb, 25 C
Protocol: as §1, §2

| 50 nM Ag Bound [RU] | Kd [nM] | koff [s⁻¹] | kon [M⁻¹ s⁻¹] | t1/2 [min] | Binder |
| --- | --- | --- | --- | --- | --- |
| 23 | 1.26 | 6.7e-05 | 53400 | 172 | B1 |
| 64 | 12 | 0.00211 | 175000 | 5 | B2 |
| 38 | 0.996 | 0.000116 | 117000 | 99 | B3 |
| 24 | 1.8 | 8.84e-05 | 49200 | 131 | B4 |
| 63 | 2.21 | 0.000246 | 111000 | 47 | B5 |
| 28 | 5.66 | 0.000411 | 72600 | 28 | B6 |
| 12 | 1.3 | 5.34e-05 | 41200 | 216 | B7 |

Target: T2, Mouse IL2Rγ extracellular domain …
Experiment: SPR Biacore 4000, anti-hFc-captured mAb, 25 C
Protocol: as §1, §2

| 100 nM Ag Bound [RU] | binding result | Binder |
| --- | --- | --- |
| 2 |  | B1 |
| 4 | no binding (tested: 100 nM) | B2 |
| 4 | no binding (tested: 100 nM) | B3 |
| 5 | no binding (tested: 100 nM) | B4 |
| 3 | no binding (tested: 100 nM) | B5 |
| 2 |  | B6 |
| 1 | no binding (tested: 100 nM) | B7 |

Target: T4, Rat IL2Rγ extracellular domain …
Experiment: SPR Biacore 4000, anti-hFc-captured mAb, 25 C
Protocol: as §1, §2

| 100 nM Ag Bound [RU] | binding result | Binder |
| --- | --- | --- |
| 3 | no binding (tested: 100 nM) | B1 |
| 4 | no binding (tested: 100 nM) | B2 |
| 3 | no binding (tested: 100 nM) | B3 |
| 4 | no binding (tested: 100 nM) | B4 |
| 3 | no binding (tested: 100 nM) | B5 |
| 3 | no binding (tested: 100 nM) | B6 |
| 1 | no binding (tested: 100 nM) | B7 |
